T1: human OPGbp[143-317] (human, UniProt O14788 143-317)
T1 sequence (looked up): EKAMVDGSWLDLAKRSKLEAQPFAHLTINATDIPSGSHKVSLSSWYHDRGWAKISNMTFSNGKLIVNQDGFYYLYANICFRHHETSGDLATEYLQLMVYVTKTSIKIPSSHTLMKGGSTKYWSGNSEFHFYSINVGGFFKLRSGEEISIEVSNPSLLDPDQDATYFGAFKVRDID

T2: FLAG-murine OPGbp[158-316]/DE (murine, UniProt O35235 158-316)
T2 construct: Produced in E. coli; also called FLAG-mouse OPGbp/DE; DE variant
T2 sequence: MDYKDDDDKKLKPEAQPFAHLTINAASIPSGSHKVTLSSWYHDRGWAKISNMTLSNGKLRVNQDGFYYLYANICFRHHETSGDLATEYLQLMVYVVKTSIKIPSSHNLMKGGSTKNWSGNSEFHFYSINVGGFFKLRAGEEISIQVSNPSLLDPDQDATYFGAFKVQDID


How the values were obtained:
human OPGbp[143-317] [1] = target: T1, human OPGbp[143-317]; experiment: cell-based or functional assay
human OPGbp[143-317] [2] = target: T1, human OPGbp[143-317]; experiment: EIA: plate coated with human OPGbp[143-317] at 3 ug/ml, AT antibody in twofold steps 1.953-2000 ng/ml, goat anti-human IgG (Fc) conjugate, ABTS, absorbance at 405 nm
Method: (§1) After overnight incubation, the protein solutions were removed from the plate and 200 μl of 5% Chicken Serum (Gibco/BRL Cat# 16110-082) in PBST (PBS plus 0.05% Tween 20) was added to each well of the plate and plates were incubated at room temperature (RT) for 90 min with agitation. After incubation and blocking, plates were washed 4 times with 1×K-P wash solution in dH₂O (Cat#50-63-00, Kirkegaard & Perry Laboratories) and dried. […] Plates were incubated for three hours at room temperature with agitation, washed four times with 1×K-P wash solution and dried. Goat anti-human IgG (Fc) (Jackson ImmunoResearch, Cat# 109-036-098) was diluted 1:5000 in 5% Chicken Serum in PBST and 100 μl was added to each well. […] 100 μl of undiluted ABTS substrate (Kirkegaard & Perry; Cat# 50-66-00) was added to each well and the dish was incubated at room temperature until sufficient blue-green color developed. Color development was stopped by addition of 100 μl 1% SDS. Quantitation of color development was performed using a microtiter plate reader with detection at 405 nm.

[3] = target: T2, FLAG-murine OPGbp[158-316]/DE; experiment: EIA: plate coated with FLAG-murine OPGbp[158-316]/DE at 3 ug/ml, AT antibody in twofold steps 1.953-2000 ng/ml, goat anti-human IgG (Fc) conjugate, ABTS, absorbance at 405 nm
Method: as §1

human OPGbp[143-317] [4] = target: T1, human OPGbp[143-317]; experiment: SPR (BIAcore), immobilized OPGbp[143-317]

Row | koff (human OPGbp[143-317] [4]) | Binder | further results
1 | 0.0062 s⁻¹ | “AT” Fab S97A (Fab, V domains shown, The Fab carried a 6xHis tag. Its chain and terminus are not stated, so it is left out., His-tagged Fab) VH: QVQLVQSGAEVRKPGASVKVSCKASGYDFSNYAIHWVRQAPGQRLEWMGWINAGNGNTKFSQKFQGRITVTRDTAASTAYMELRSLRSEDTAVYYCARDSANMVRGIIIAYYFDYWGQGTLVTVSS VL: EIVMTQSPSSLSASVGDRVTITCRASQSISRYLNWYQLKPGKAPRLLIYGASSLQSGVPSRFSGSGSGAEFTLTISSLQPEDIATYYCQHTRAFGQGTKVEIKR | –
2 | 0.414 s⁻¹ | “AT” Fab Y111A (Fab, V domains shown, His-tagged Fab) VH: QVQLVQSGAEVRKPGASVKVSCKASGYDFSNYAIHWVRQAPGQRLEWMGWINAGNGNTKFSQKFQGRITVTRDTAASTAYMELRSLRSEDTAVYYCARDSSNMVRGIIIAYYFDAWGQGTLVTVSS VL: EIVMTQSPSSLSASVGDRVTITCRASQSISRYLNWYQLKPGKAPRLLIYGASSLQSGVPSRFSGSGSGAEFTLTISSLQPEDIATYYCQHTRAFGQGTKVEIKR | –
3 | 0.127 s⁻¹ | “AT” Fab D110A (Fab, V domains shown, His-tagged Fab) VH: QVQLVQSGAEVRKPGASVKVSCKASGYDFSNYAIHWVRQAPGQRLEWMGWINAGNGNTKFSQKFQGRITVTRDTAASTAYMELRSLRSEDTAVYYCARDSSNMVRGIIIAYYFAYWGQGTLVTVSS VL: EIVMTQSPSSLSASVGDRVTITCRASQSISRYLNWYQLKPGKAPRLLIYGASSLQSGVPSRFSGSGSGAEFTLTISSLQPEDIATYYCQHTRAFGQGTKVEIKR | –
4 | 0.012 s⁻¹ | “AT” Fab N98A (Fab, V domains shown, The Fab carried a 6xHis tag. Its chain and terminus are not stated, so it is left out., His-tagged Fab) VH: QVQLVQSGAEVRKPGASVKVSCKASGYDFSNYAIHWVRQAPGQRLEWMGWINAGNGNTKFSQKFQGRITVTRDTAASTAYMELRSLRSEDTAVYYCARDSSAMVRGIIIAYYFDYWGQGTLVTVSS VL: EIVMTQSPSSLSASVGDRVTITCRASQSISRYLNWYQLKPGKAPRLLIYGASSLQSGVPSRFSGSGSGAEFTLTISSLQPEDIATYYCQHTRAFGQGTKVEIKR | –

More lines, now with the values behind:

Row | Binder | koff (human OPGbp[143-317] [4]) | further results
5 | Fab “Y” (Fab, V domains shown) VH: EVQLVQSGAEVRKPGASVKVSCKASGYDFSNYAIHWVRQAPGQRLEWMGWINAGNGNTKFSQKFQGRITVTRDTAASTAYMELRSLRSEDTAVYYCARDSSNMVRGIIIAYYFDYWGQGTLVTVSS VL: EIVLTQSPATLSFSPGERATLSCRASQSVGSYLAWYQQRPGQAPRPLIYDATNRATGIPTRFSGSGSGTDFTLTISSLEPEDFATYYCQHRRTFGRGTKLEIKR | – | murine bone marrow assay, TRAP in solution (pNPP), IC50 (human OPGbp[143-317] [1]): 212 nM
6 | “AT” antibody (antibody, human IgG1, V domains shown, Full-length antibody from CHO cells: Fab “AT” heavy chain variable region joined to human IgG1 CH1, hinge, CH2 and CH3; light chain of Fab “AT” (kappa); the mature antibodies are identical; also called “AT” Ab; “AT” Nb) VH: QVQLVQSGAEVRKPGASVKVSCKASGYDFSNYAIHWVRQAPGQRLEWMGWINAGNGNTKFSQKFQGRITVTRDTAASTAYMELRSLRSEDTAVYYCARDSSNMVRGIIIAYYFDYWGQGTLVTVSS VL: EIVMTQSPSSLSASVGDRVTITCRASQSISRYLNWYQLKPGKAPRLLIYGASSLQSGVPSRFSGSGSGAEFTLTISSLQPEDIATYYCQHTRAFGQGTKVEIKR | – | EC50 (read off the curve) (human OPGbp[143-317] [2]): ~0.01 µg/mL; EC50 (read off the curve) [3]: ~0.02 µg/mL
7 | “AT” Fab S96A (Fab, V domains shown, The Fab carried a 6xHis tag. Its chain and terminus are not stated, so it is left out., His-tagged Fab) VH: QVQLVQSGAEVRKPGASVKVSCKASGYDFSNYAIHWVRQAPGQRLEWMGWINAGNGNTKFSQKFQGRITVTRDTAASTAYMELRSLRSEDTAVYYCARDASNMVRGIIIAYYFDYWGQGTLVTVSS VL: EIVMTQSPSSLSASVGDRVTITCRASQSISRYLNWYQLKPGKAPRLLIYGASSLQSGVPSRFSGSGSGAEFTLTISSLQPEDIATYYCQHTRAFGQGTKVEIKR | 0.0072 s⁻¹ | –
8 | “AT” Fab D95A (Fab, V domains shown, The Fab carried a 6xHis tag. Its chain and terminus are not stated, so it is left out., His-tagged Fab) VH: QVQLVQSGAEVRKPGASVKVSCKASGYDFSNYAIHWVRQAPGQRLEWMGWINAGNGNTKFSQKFQGRITVTRDTAASTAYMELRSLRSEDTAVYYCARASSNMVRGIIIAYYFDYWGQGTLVTVSS VL: EIVMTQSPSSLSASVGDRVTITCRASQSISRYLNWYQLKPGKAPRLLIYGASSLQSGVPSRFSGSGSGAEFTLTISSLQPEDIATYYCQHTRAFGQGTKVEIKR | – | binding result (human OPGbp[143-317] [4]): no binding

— patent US20030103978A1 (Amgen, published 2003)
